Outward current in response to applied voltage, single whole-cell patch clamp of isolated rat detrusor cells, 300 nM IBTX data for one substance are collected here from patent US20220133849A1.

Where only a bound is given, the exact number is not on record here.

For this test, the target named is Maxi-K channel of rat bladder detrusor smooth muscle (endogenous) (rat) (UniProt Q62976). Kind of test: cell-based or functional assay.
Chain of UniProt Q62976 (Q62976 whole entry): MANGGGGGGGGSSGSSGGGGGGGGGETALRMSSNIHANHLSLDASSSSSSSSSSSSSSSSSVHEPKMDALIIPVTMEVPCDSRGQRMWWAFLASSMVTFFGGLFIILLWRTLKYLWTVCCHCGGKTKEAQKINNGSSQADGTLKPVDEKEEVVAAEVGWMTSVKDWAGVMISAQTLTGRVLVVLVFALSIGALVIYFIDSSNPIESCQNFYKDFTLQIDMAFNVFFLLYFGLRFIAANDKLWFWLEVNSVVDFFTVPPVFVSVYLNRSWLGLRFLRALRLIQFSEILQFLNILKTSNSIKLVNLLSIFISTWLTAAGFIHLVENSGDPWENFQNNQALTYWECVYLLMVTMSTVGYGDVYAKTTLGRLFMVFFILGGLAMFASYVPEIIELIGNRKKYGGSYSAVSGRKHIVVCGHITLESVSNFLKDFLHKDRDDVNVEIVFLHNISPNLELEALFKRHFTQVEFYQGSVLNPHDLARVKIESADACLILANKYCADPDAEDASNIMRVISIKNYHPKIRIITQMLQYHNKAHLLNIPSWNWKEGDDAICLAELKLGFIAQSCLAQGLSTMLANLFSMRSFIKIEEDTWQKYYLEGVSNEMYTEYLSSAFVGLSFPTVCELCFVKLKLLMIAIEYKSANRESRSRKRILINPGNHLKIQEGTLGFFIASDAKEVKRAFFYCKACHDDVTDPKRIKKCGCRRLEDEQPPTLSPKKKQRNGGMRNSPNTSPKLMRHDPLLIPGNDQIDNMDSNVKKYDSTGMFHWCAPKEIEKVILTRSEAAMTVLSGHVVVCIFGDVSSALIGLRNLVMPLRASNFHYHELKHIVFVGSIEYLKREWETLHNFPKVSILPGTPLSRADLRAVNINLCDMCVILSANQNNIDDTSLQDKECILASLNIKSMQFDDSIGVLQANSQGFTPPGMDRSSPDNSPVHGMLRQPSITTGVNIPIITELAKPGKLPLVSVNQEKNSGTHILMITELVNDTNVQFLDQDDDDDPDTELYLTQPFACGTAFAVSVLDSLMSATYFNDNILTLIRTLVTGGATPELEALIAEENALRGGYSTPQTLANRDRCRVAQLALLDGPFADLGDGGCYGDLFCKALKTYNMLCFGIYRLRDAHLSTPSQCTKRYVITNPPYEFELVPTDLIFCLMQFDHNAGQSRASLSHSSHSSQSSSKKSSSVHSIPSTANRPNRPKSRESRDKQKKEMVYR

“iberiotoxin (from UniProt P24663 1-37) (peptide)” gave an outward current in response to applied voltage, single whole-cell patch clamp of isolated rat detrusor cells, 300 nM IBTX greater than 50%.
